Assay results as given in paper PMC11791206 (Nature Communications, 2025).

Target: full-length (MLD-containing) EBOV glycoprotein GP1,2, wild type (Ebola virus (EBOV), UniProt Q05320)
Assay: immunostaining of cells or tissue
Details: one partner purified

Sequence of full-length (MLD-containing) EBOV glycoprotein GP1,2, wild type (Q05320 33-676): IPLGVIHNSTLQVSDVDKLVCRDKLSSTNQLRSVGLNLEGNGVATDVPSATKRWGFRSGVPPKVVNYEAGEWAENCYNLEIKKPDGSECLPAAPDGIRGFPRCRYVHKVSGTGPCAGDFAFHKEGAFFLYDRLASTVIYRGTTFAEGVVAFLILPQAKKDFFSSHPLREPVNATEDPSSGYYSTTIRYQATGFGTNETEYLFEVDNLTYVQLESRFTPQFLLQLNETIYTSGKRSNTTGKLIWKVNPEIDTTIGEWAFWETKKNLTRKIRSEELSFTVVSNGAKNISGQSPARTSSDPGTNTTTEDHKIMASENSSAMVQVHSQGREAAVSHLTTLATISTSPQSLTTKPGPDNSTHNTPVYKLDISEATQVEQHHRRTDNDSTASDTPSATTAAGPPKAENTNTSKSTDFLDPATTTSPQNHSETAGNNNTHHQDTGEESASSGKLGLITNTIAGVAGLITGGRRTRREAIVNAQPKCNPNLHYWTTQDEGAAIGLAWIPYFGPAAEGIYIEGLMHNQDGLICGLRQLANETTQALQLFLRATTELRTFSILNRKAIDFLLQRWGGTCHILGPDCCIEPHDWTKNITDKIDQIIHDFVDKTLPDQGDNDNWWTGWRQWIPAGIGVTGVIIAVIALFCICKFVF

B1: mAb 9.6.3A6 (3A6 IgG) (antibody, V domains shown)
VH: EVQLLESGGGLVKPGGSLRLSCAASGFTFNEYMMNWVRQPPGKGLEWVSSISGTSTYINYADSVKGRFTISRDNAKNSLYLQMNSLRSDDTAMYYCARGSTGGYWGQGTLITVSS
VL: DIVMTQTPLSSAVTLGQPASISCRSSQRLVHSDGNTYLSWLHQRPGQPPRLLIYKVSLRFSGVPDRFSGSGAGTDFTLKISRVEAEDVGIYYCMQATQFPLTFGGGTKVEIK
notes: copies: 2 + 2
  binding result: binds
